Test results: paper PMC11946513 (The Journal of Biological Chemistry, 2025)

Target: T1, KAT6A MYST domain (KAT6A 501-784) (human, UniProt Q92794 501-784, autoacetylated K604 (as seen in the structure))
T1 construct: KAT6A (MOZ), human, acetyltransferase (MYST) domain, residues 501-784, NCBI NP_006757.2; also called pHis-MYST domain; not shown: polyhistidine, N-terminal, cleaved
Test: crystal structure; KAT6A MYST domain at 8 mg/ml complexed with H3K14-CoA in a 1:10 M ratio, 4 h at 4 °C; sitting drop, 1.25 M NH4SO4, 0.28 M NaCl, 0.1 M HEPES pH 6.4, 21 °C
Settings: both partners purified

T1 sequence (Q92794 501-784): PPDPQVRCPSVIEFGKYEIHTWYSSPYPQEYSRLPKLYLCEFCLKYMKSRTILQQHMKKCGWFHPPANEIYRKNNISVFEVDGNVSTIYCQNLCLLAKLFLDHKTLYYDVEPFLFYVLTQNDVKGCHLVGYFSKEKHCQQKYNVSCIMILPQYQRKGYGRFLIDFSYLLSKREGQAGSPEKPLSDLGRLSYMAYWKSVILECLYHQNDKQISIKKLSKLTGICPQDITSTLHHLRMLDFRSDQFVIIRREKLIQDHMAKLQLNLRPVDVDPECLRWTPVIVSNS

B1: H3K14-CoA bisubstrate inhibitor (peptide)
peptide: QTARKSTGGKAPRKQLATK
modifications: ε-amino group of K14 covalently attached to CoA through a non-native acetyl bridge; 6-aminohexanoic acid (Ahx) linker on the N-terminus
notes: histone H3 tail, residues 5-23; Made on Rink Amide resin, so the C-terminus is probably an amide (surmised); Only residues 10-17 are resolved in the structure; also called peptidyl-CoA analogue; H3 (5-23) with K14 attached to CoA; source: synthetic peptide (manual Fmoc synthesis on Nova PEG Rink Amide, HPLC purified, coupled to Coenzyme A)
- binding result: binds
